Data from the supplement of paper PMC10567573.
± gives the standard deviation.

Assay: protein stability index of a GFP-peptide fusion (GPS, HEK-293T) (PSI 1-6); higher = more stable
[1] = treatment: DMSO, c terminus: a fixed tail appended
[2] = treatment: MLN4924 1 uM, 8 h, c terminus: a fixed tail appended
[3] = treatment: DMSO, c terminus: native
[4] = treatment: MLN4924 1 uM, 8 h, c terminus: native
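Further: 24-mer peptide tiles fused after GFP, lentivirally expressed, FACS-sorted into six equal bins by GFP/DsRed ratio, decoded by Illumina sequencing, PSI is the read-weighted mean bin number.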

Sequence	protein stability index [1]	protein stability index [2]	protein stability index [3]	protein stability index [4]
KRRKDSEEEAASPEGKRVPKRLRC [FANCE]	5.08 ± 0.3	5.12 ± 0.26		
GGQDSFESIESYDSCDRLTQSWSS [ETS1]	3.68 ± 0.67	3.84 ± 0.3		
NCLTGEGEDTRLSASEMKQLIDNI [CIB1]	4.67 ± 0.18	4.74 ± 0.32		
STHHGCEHICVNNGNSYICKCSEG [MATN2]	5.16 ± 0.27	4.94 ± 0.23		
LGLLDDYLEVAKHFKPHGFSSDKA [ATF4]	2.89 ± 0.19	3.07 ± 0.91		
EFSSVGTEMIITKAGRRMFPACRV [TBX6]	2.7 ± 0.21	2.66 ± 0.34		
ICGIICIGPNVLMVHKRSHTGERP [IKZF1]	2.46 ± 0.28	2.02 ± 0.38		
LDQPVSAPPSPRDISMEIDSPENM [CCDC6]	5.47 ± 0.2	5.23 ± 0.41		
LKYVRGLLQTEPQNNQAKELERLI [FIS1]	2.89 ± 0.29	3.02 ± 0.29		
EDGSVELESQVQKDGVADSTVISS [C18orf25]	5.5 ± 0.2	5.42 ± 0.28		
SCSQSHCCSRYLCMGAMSLFLPCL [SPRY1]	2.52 ± 0.44	2.5 ± 0.4		
EWFQNCYARYHQAFADRDQSERQR [TEKT4]	3.41 ± 0.24	3.21 ± 0.21		
ILNPHVHVIGEDAACIAYIRLTQY [CAMK2B]	2.51 ± 0.63	2.31 ± 0.27		
TESSNTTIEDEDVKARKQEIIKVT [CAMK2D]	5.21 ± 0.29	5.07 ± 0.25		
RTDEELQPPTTTVARSGTPAVENK [PLK2]	5.42 ± 0.6	5.45 ± 0.27		
MPRQISRQSSVTESTLYPNPYHQP [TPRG1]	3.73 ± 0.34	3.7 ± 0.25		
FVLDENDNAPAVLHPRPDWEHSAP [PCDHGC5]	3.33 ± 0.22	3.62 ± 0.31		
LTHLVKLDLSKNKLQQLPADFGRL [LRRC59]	2.65 ± 0.19	2.7 ± 0.17		
FAHHSLFLHVRKATRAMGLLNTLS [TMEM175]	2.6 ± 0.78	2.18 ± 0.23		
NGGVVQVGELLPCKICGRTFFPVA [ZC2HC1A]	2.42 ± 0.091	2.48 ± 0.47		
TSSVSCALDEAAAALTRMRAESTA [ANKRD17]	3.06 ± 0.42	3.05 ± 0.32		
SPMLIVFHGKYSTINPLWHIRHLG [GLT8D2]	2.82 ± 0.44	2.47 ± 0.71		
LRLENNHCHIEESEHVLKKAHKYS [VPS39]	2.87 ± 0.37	3.31 ± 0.45		

Sequence	protein stability index [1]	protein stability index [2]	protein stability index [3]	protein stability index [4]
LMGPSRMSLFSLYMVQDQHECILP [M1AP]	2.58 ± 0.3	2.33 ± 0.24		
KEMSKVWNDLRPKLSCLFAGPHST [SNX8]	2.63 ± 0.7	2.79 ± 0.59		
YGRFIRWLNKEKGIFKIEDSAQVA [SPDEF]	2.37 ± 0.35	2.48 ± 0.2		
SPALSQGHVTGSKTTKDATGPDT [PSD2]			5.33 ± 0.28	5.43 ± 0.23
SPASHVDVDLTIHGRHIDCPATWG [FOXJ1]	3.14 ± 0.2	3.28 ± 0.19		
FMEKRNQWLVSQLSAASPDTGHDS [TRAF3IP2]	2.76 ± 0.34	3.21 ± 0.58		
WYVCRTQGVEGDHCVTSDPATSPL [TRIM35]	3.15 ± 0.18	2.98 ± 0.29		
RRLEAFEHPNVVRLMDVCATSRTD [CDK4]	3.9 ± 0.13	3.91 ± 0.27		
LIQPINHTTLQCLAARVIVNHRIY [FEM1C]	2.39 ± 0.3	2.38 ± 0.43		
VTSNGSIGRDPPAETQPQNPPAQP [CLPTM1]	5.41 ± 0.27	5.41 ± 0.15		
GGIIAPFIPSLKYVQWSLPFIVFG [SLC22A15]	2.75 ± 0.39	2.86 ± 0.32		
PHLMPSNCGLEEKIANLGSCNDSK [S100A14]	2.61 ± 0.9	1.66 ± 0.27		
GLALESSSGLQDVTGPDNGVRESE [NFE2L1]	5.57 ± 0.36	5.53 ± 0.28		
DGSVRIWELREKQQLAAEPVPTGF [WDR41]	3.87 ± 0.16	3.72 ± 0.32		
LPLDDQVALLRAHAGEHLLLGATK [HNF4A]	3.6 ± 0.19	3.63 ± 0.19		
KEACDQHGPDLYPKFKKWCDDYFF [CPOX]	2.31 ± 0.27	2.58 ± 0.32		
NSTGSGRGKKLMVLTEPILIETYT [TPRG1]	2.57 ± 0.18	2.75 ± 0.24		
RRGRMALCGQAAGAASLPSELIVH [FBXO33]	2.96 ± 0.25	2.78 ± 0.32		
KDFLTGMCLFLQSLRQKQPERLCS [GMPPB]	2.25 ± 0.44	2.23 ± 0.36		
RVRPLARVTSLANLISPVRNGAVR [NET1]	3.12 ± 0.17	3.2 ± 0.41		
SERPLDFLDLERPPTTPQNEEIRA [MFF]	5.29 ± 0.39	5.55 ± 0.15		
SARYLSQCQEAEQARAELTAQHQR [FBF1]	4.76 ± 0.28	4.57 ± 0.15		
NDVKHHRWFRSVDWEAVPQRKLKP [PRKX]	3.65 ± 0.19	3.6 ± 0.24		

Sequence	protein stability index [1]	protein stability index [2]	protein stability index [3]	protein stability index [4]
LKLWEIGKIIGGMWRDLTDEEKQE [SMARCE1]	2.67 ± 0.55	3.44 ± 0.43		
LRFFKEKDGKAFHPTYEEKLKLVA [ACBD3]	2.53 ± 0.26	2.5 ± 0.55		
GRCGPQAARAAGRDVAAEAVARSP [POMT2]	4 ± 0.35	3.63 ± 0.15		
SVGDPCGGAICGGPDHRLRLWRLF [SLC25A25]	2.35 ± 0.59	2.62 ± 0.21		
STNDKTVKLWKVSERDKRPEGYNL [PPP2R2B]	3.93 ± 0.12	4.19 ± 0.14		
MLWVQRKRRRKETSECPSDKDKSP [C10orf62]	3.2 ± 0.42	3.66 ± 0.43		
GLRRVLDELTLARTDLEMQIEGLN [KRT15]	2.71 ± 0.3	2.66 ± 0.19		
PREQAARFCSEIKSSKYGEGHQAW [SEPHS2]	3.36 ± 0.12	3.52 ± 0.19		
NFRDLVRDLEKQKEEVRAALEQRE [TRIM29]	4.54 ± 0.11	4.43 ± 0.21		
MGSAADVRFSLGTTTHAPPGVHRR [PPFIA4]	4.26 ± 0.3	4.51 ± 0.39		
NILLDKHRMVVKIGDFGISKILSS [NEK8]	2.19 ± 0.15	2.09 ± 0.17		
LLESPQLATLAEDVTAALAKQGL [MAP2]			4.66 ± 0.21	4.53 ± 0.2
AGADLPPPKIRLKPHRLGDSEHEP [PWWP2B]	4.83 ± 0.23	4.91 ± 0.28		
TLSAELVPWLNLKKQDENEGIKVE [CEP70]	4.33 ± 0.057	4.22 ± 0.098		
IQKNKLKLTREQEELEEALEVERQ [MNAT1]	5.23 ± 0.31	5.24 ± 0.17		
LIFHRHPVAQSTDAIRGKVGYTRG [SPSB1]	2.33 ± 0.23	2.41 ± 0.21		
AEEKERRRKEYDALKAAKREQEKK [LRRC59]	5.31 ± 0.26	5.39 ± 0.12		
AKALNRPPTYPTKYFGCELGAQTQ [EIF5]	2.71 ± 0.23	3.15 ± 0.13		
NGWTCLHWACKRNHGQVVSYLLKS [ANKRD40]	2.72 ± 0.46	2.29 ± 0.43		
KRPYAKELETVDFKDKLEETKGQI [SERPINB5]	5.12 ± 0.21	5.23 ± 0.14		
VVLLQGAELLLAARLLGALAARSG [TSPAN10]	3.52 ± 0.57	2.76 ± 0.59		
ILTLPEMMRMFSENLAHHLEIDSG [TRIM15]	2.44 ± 0.3	2.44 ± 0.31		
MAVTGWLESLRTAQKTALLQDGRR [DPCD]	2.51 ± 0.14	2.68 ± 0.17		

Sequence	protein stability index [1]	protein stability index [2]	protein stability index [3]	protein stability index [4]
FSFLGLLALGVSLLCNAITGITLL [PTGFR]	2.77 ± 0.31	3.09 ± 0.98		
FKWYLENVYPEMRVYNNTLTYGEV [GALNT9]	2.38 ± 0.48	2.43 ± 0.35		
KQGELPREVRRAQARLLNPSATRA [NOP53]	4.42 ± 0.46	4.47 ± 0.19		
YYLCGFCPAELFTNTRSDLDVFGR [LUC7L3]	2.26 ± 0.25	2.04 ± 0.21		
PCKQCKKKYVKGDVSLCRWHPKPY [FBXO34]	3.09 ± 0.34	3.07 ± 0.51		
CSDSDKKCHLWTAMDLGFFVVMGV [CLCN6]	2.95 ± 0.63	2.97 ± 0.5		
PYYLRSFLVVLKTVLENEDDMLLF [FAN1]	2.27 ± 0.36	2.26 ± 0.25		
GEALGRDHSEHLSGSSYRDALQRY [RBMY1A1]	4.33 ± 0.22	4.26 ± 0.29		
RNVLELNDVRQSANYTCVAMSTLG [PTPRD]	2.85 ± 0.28	2.74 ± 0.17		
ASCCIDPREDGASVNDQCGFGVLR [TSPAN10]	3.44 ± 0.14	3.83 ± 0.31		
YRCIREARYTMPSSLLAPAKHLIA [PLK2]	2.56 ± 0.54	2.48 ± 0.18		
QSLRCDLIRYICGVVHPSNEVLSS [INTS3]	2.33 ± 0.34	2.19 ± 0.45		
KEKCVSLPDCCHGSELRDFPGRPM [DLC1]	3.82 ± 0.33	3.76 ± 0.4		
EIIELRRTVNALEIELQAQHNLRD [KRT34]	2.89 ± 0.36	3.03 ± 0.22		
GPEPPPVYTNLSSYSPASASSGGA [JUNB]	4.6 ± 0.5	4.76 ± 0.3		
PDPSHSPSDKVGRADAHLGSSSVA [TOR1AIP2]	4.98 ± 0.37	4.68 ± 0.95		
MKNKNNVTEFILLGLTQNPEGQKV [OR4A15]	2.44 ± 0.31	2.99 ± 0.11		
GLSLTDESDSCVSFEAPLTPLIQQ [PSD2]	4.29 ± 0.35	4.15 ± 0.29		
ESEEEGPWEPPVLPILTWPVLQSR [HDAC6]	4.5 ± 0.17	4.37 ± 0.15		
NMDPAGLDDEDDTSIGMPSLMYRS [RETREG3]	4.87 ± 0.15	4.91 ± 0.1		
